First the molecules themselves.
B1: Focal Adhesion Kinase (natural protein, human (endogenous in MDA-MB-231), UniProt Q05397 1-1052, looked up)
chain: MAAAYLDPNLNHTPNSSTKTHLGTGMERSPGAMERVLKVFHYFESNSEPTTWASIIRHGDATDVRGIIQKIVDSHKVKHVACYGFRLSHLRSEEVHWLHVDMGVSSVREKYELAHPPEEWKYELRIRYLPKGFLNQFTEDKPTLNFFYQQVKSDYMLEIADQVDQEIALKLGCLEIRRSYWEMRGNALEKKSNYEVLEKDVGLKRFFPKSLLDSVKAKTLRKLIQQTFRQFANLNREESILKFFEILSPVYRFDKECFKCALGSSWIISVELAIGPEEGISYLTDKGCNPTHLADFTQVQTIQYSNSEDKDRKGMLQLKIAGAPEPLTVTAPSLTIAENMADLIDGYCRLVNGTSQSFIIRPQKEGERALPSIPKLANSEKQGMRTHAVSVSETDDYAEIIDEEDTYTMPSTRDYEIQRERIELGRCIGEGQFGDVHQGIYMSPENPALAVAIKTCKNCTSDSVREKFLQEALTMRQFDHPHIVKLIGVITENPVWIIMELCTLGELRSFLQVRKYSLDLASLILYAYQLSTALAYLESKRFVHRDIAARNVLVSSNDCVKLGDFGLSRYMEDSTYYKASKGKLPIKWMAPESINFRRFTSASDVWMFGVCMWEILMHGVKPFQGVKNNDVIGRIENGERLPMPPNCPPTLYSLMTKCWAYDPSRRPRFTELKAQLSTILEEEKAQQEERMRMESRRQATVSWDSGGSDEAPPKPSRPGYPSPRSSEGFYPSPQHMVQTNHYQVSGYPGSHGITAMAGSIYPGQASLLDQTDSWNHRPQEIAMWQPNVEDSTVLDLRGIGQVLPTHLMEERLIRQQQEMEEDQRWLEKEERFLKPDVRLSRGSIDREDGSLQGPIGNQHIYQPVGKPDPAAPPKKPPRPGAPGHLGSLASLSSPADSYNEGVKLQPQEISPPPTANLDRSNDKVYENVTGLVKAVIEMSSKIQPAPPEEYVPMVKEVGLALRTLLATVDETIPLLPASTHREIEMAQKLLNSDLGELINKMKLAQQYVMTSLQQEYKKQMLTAAHALAVDAKNLLDVIDQARLKMLGQTRPH
notes: Focal adhesion kinase (FAK), endogenous in human MDA-MB-231 breast cancer cells; Endogenous protein; also called FAK; source: endogenous, MDA-MB-231 lysate (RIPA buffer)
B2: laminB1 (natural protein, human (endogenous in MDA-MB-231), UniProt P20700 1-586, looked up)
chain: MATATPVPPRMGSRAGGPTTPLSPTRLSRLQEKEELRELNDRLAVYIDKVRSLETENSALQLQVTEREEVRGRELTGLKALYETELADARRALDDTARERAKLQIELGKCKAEHDQLLLNYAKKESDLNGAQIKLREYEAALNSKDAALATALGDKKSLEGDLEDLKDQIAQLEASLAAAKKQLADETLLKVDLENRCQSLTEDLEFRKSMYEEEINETRRKHETRLVEVDSGRQIEYEYKLAQALHEMREQHDAQVRLYKEELEQTYHAKLENARLSSEMNTSTVNSAREELMESRMRIESLSSQLSNLQKESRACLERIQELEDLLAKEKDNSRRMLTDKEREMAEIRDQMQQQLNDYEQLLDVKLALDMEISAYRKLLEGEEERLKLSPSPSSRVTVSRASSSRSVRTTRGKRKRVDVEESEASSSVSISHSASATGNVCIEEIDVDGKFIRLKNTSEQDQPMGGWEMIRKIGDTSVSYKYTSRYVLKAGQTVTIWAANAGVTASPPTDLIWKNQNSWGTGEDVKVILKNSQGEEVAQRSTVFKTTIPEEEEEEEEAAGVVVEEELFHQQGTPRASNRSCAIM
notes: Lamin B1, nuclear envelope intermediate filament protein, endogenous in human MDA-MB-231 breast cancer cells; The introduction says that laminB1 is tethered to the membrane via a farnesyl group; nothing is said of the modification state in the co-IP; also called LMNB1; source: endogenous, MDA-MB-231 lysate (RIPA buffer)

Test [1] has as its target B2. In words: co-IP; MDA-MB-231 lysate in RIPA buffer (50mM Tris HCl pH 8, 150 mM NaCl, 1% NP-40, 0.5% sodium deoxycholate); immunoprecipitated overnight at 4°C with laminB1 antibody; immunoblot with anti FAK and anti laminB1; IgG as negative control. Particulars: partners not purified. Background: In western blotting, separated proteins are transferred to a membrane and probed.

Test [2] concerns the target B1. In words: co-IP; MDA-MB-231 lysate in RIPA buffer (50mM Tris HCl pH 8, 150 mM NaCl, 1% NP-40, 0.5% sodium deoxycholate); immunoprecipitated overnight at 4°C with FAK antibody; immunoblot with anti FAK and anti laminB1; IgG as negative control. As to conditions: partners not purified.

In turn, B1 had an enrichment versus input in test [1] of 6.4 ± 1.05 fold versus input. For the molecule B2, the enrichment versus input in test [2] is 5.5 ± 0.4 fold versus input.

These data come from publication PMC8266045, “MT1-MMP-dependent ECM processing regulates laminB1 stability and mediates replication fork restart” (PLoS ONE, 2021).
